For 1 substance, IC30 concentration (30% inhibition against the 3D7 target parasites, GIA) and Inhibition (GIA results are on record in patent US20160279221A1.

The experiment addresses AMA1 on P. falciparum 3D7 strain parasites (Plasmodium falciparum). Description: cell-based or functional assay.

In turn, rat mAb 4G2dc1 (antibody) showed an IC30 concentration (30% inhibition against the 3D7 target parasites, GIA) of 1800 µg/mL and an Inhibition (GIA at 1 mg/ml against the 3D7 target strain) of 22%.
